What all share (experiment): fluorescence polarisation
A general note: Fluorescence polarisation rises when a labelled molecule tumbles more slowly, as on binding a larger partner.

For assay [1], the target named is Sgo1 peptide (residues 446–466) bearing fluorescein (UniProt Q5FBB7).
Another assay concerns the target recombinant HP1α (UniProt P45973 1-191).
The target of assay [2] is chemically synthesized full-length heterochromatin protein 1α without PTMs (21) (UniProt P45973 1-191).

Ends that are not written are not given here.

Broadly, the Kd is the equilibrium constant for the complex coming apart.

Chain of recombinant HP1α (P45973 whole entry): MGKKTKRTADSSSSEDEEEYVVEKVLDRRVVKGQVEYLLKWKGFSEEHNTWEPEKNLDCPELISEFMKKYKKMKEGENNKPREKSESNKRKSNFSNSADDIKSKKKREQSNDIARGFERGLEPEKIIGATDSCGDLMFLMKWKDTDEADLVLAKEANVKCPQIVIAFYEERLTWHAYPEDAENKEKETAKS
Chain of chemically synthesized full-length heterochromatin protein 1α without PTMs (21) (P45973 whole entry): as above

The molecule “chemically synthesized HP1α ubiquitinated at K154 (21f) (from UniProt P45973 1-191; P0CG48 1-76)” had a Kd in assay [1] of 1870 nM. Turning to NVSLYPVVKIRRLSLSPKKNK (peptide, UniProt Q5FBB7 446-466, looked up, also: fluorescein, position not given here) [Sgo1 peptide (residues 446–466) bearing fluorescein], the Kd stood at 510 nM in the assay with recombinant HP1α and 470 nM in assay [2].

For the origin of these results see PMC8872386 (Chemical Science, 2021).
